{
  "source": "patent US20110287458A1",
  "about": "(TEXAS A AND M UNIVERSITY SYSTEM, published 2011)",
  "molecular_target": "the molecule itself",
  "experiment": "native PAGE, self-association",
  "method": "Native polyacrylamide gel electrophoresis (PAGE) was performed by use of the MINI PROTEAN® 3 electrophoresis cell and a discontinuous buffer system (Ornstein-Davis) according to the standard procedures given by the manufacturer (Bio-Rad Laboratories). Using native PAGE, pure canine S100A12 was evaluated in the presence of 0.3 mM Ca²⁺, 3 mM Ca²⁺, 10 mM Ca²⁺, and 10 mM EGTA.",
  "data": [
    {"protein": "canine S100A12 (other, Purified from canine leukocytes; Runs as a non-covalent homodimer on native PAGE; In the RIA the tracer is 125I-labelled; In serum and fecal extracts it is the native protein; also called calgranulin C; EN-RAGE) TKLEDHLEGIVDVFHRYSARVGHPDTLSKGEMKQLIIRELPNTLKNTKDQATVDKLFQDLDADKDGQVNFNEFISLVSVVLDTSHKNTHK", "values": [
      {"measurement": "binding result", "result": "binds"}
    ]}
  ]
}
